Measurements from patent US20230203185A1 (ECO ANIMAL HEALTH, published 2023).

T1: porcine CD163 with deletion of SRCR domain 5 on porcine alveolar macrophages (porcine, UniProt Q2VL90 47-1115)
T1 construct: also called PAM CD163-d5; pPAMΔ5 domain
T1 sequence: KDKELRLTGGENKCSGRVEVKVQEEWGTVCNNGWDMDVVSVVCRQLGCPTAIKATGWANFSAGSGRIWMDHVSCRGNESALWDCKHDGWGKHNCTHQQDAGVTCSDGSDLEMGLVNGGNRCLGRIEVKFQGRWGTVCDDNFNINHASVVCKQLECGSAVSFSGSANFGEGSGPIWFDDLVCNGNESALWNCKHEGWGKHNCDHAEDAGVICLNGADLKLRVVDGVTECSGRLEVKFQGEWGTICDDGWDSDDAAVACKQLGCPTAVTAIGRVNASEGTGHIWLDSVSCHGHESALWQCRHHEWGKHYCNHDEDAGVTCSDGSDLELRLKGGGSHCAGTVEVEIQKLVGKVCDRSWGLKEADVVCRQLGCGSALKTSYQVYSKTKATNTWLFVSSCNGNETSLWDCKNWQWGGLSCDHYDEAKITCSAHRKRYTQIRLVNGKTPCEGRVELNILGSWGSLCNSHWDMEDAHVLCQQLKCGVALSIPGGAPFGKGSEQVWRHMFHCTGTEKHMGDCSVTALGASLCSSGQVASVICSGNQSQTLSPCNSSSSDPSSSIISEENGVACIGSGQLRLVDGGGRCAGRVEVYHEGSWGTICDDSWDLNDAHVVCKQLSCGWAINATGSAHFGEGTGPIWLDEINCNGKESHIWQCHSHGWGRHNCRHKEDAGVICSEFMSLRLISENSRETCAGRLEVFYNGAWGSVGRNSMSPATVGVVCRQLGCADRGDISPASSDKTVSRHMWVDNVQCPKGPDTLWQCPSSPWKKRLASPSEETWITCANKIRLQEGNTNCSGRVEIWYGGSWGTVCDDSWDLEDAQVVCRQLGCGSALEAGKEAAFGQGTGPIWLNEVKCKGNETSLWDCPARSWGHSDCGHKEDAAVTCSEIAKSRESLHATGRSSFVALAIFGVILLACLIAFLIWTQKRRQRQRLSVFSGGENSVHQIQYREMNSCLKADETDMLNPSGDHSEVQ

B1: VHH 012 (2C07) (VHH)
VHH: QLQLVESGGGLVQAGGSLRLSCVASGRTFSRYAMGWFRQAPGKEREFVAAIAWSTGSTYYANSVKGRFAISGDNAKNTVYLQMNSLKPEDTAVYYCAAETRYCSGFGCLDPRTYGSWGQGTQVTVSS
notes: Llama single domain antibody; also called 41(#12); VHCDR3 41(#12); not shown: tags: c-myc tag in periplasmic extract (ELISA, FACS); FLAG and His tags in purified VHH (SPR, infection assays)
B2: VHH 015 (2G01) (VHH)
VHH: QVQLVESGGGLVQAGDTLRLSCTASGRTFSSYSMGWFRQAPGKEREFVAAITWNGYITNYADSVKGRFTISRDNTKNTVFLQMNSLKPEETAVYYCAATTFSTTSPISRTYNYWGPGTQVTVSS
notes: Llama single domain antibody; also called 150(#15); VHCDR3 150(#15); not shown: tags: c-myc tag in periplasmic extract (ELISA, FACS); FLAG and His tags in purified VHH (SPR, infection assays)
B3: VHH 011 (2B06) (VHH)
VHH: EVQLVESGGGLVQAGGSLRLSCAASGRTLSVYGTGWFRQAPGKEREFVAGISGTTGSTLYADSVKGRFTISRDNAKNTVYLQMNSLKSEDTALYYCAAGGRVYITTSSWAYWGQGTQVTVSS
notes: Llama single domain antibody; also called 57(#11); VHCDR3 57(#11); not shown: tags: c-myc tag in periplasmic extract (ELISA, FACS); FLAG and His tags in purified VHH (SPR, infection assays)
B4: VHH 017 (3D03) (VHH)
VHH: QLQLVESGGGLVQPGGSLRLSCAASGFTLDDYTIGWFRQAPGKEREGVSCINSITSNTYYADSVKGRFTISRDNAKNTVYLQMNSLTAEDTAIYYCAADSGLFSGSSCLKYRAMRFGSWGQGTQVTVSS
notes: Llama single domain antibody; also called 29(#17); VHCDR3 29(#17); not shown: tags: c-myc tag in periplasmic extract (ELISA, FACS); FLAG and His tags in purified VHH (SPR, infection assays)
B5: VHH 023 (4E10) (VHH)
VHH: QVQLVESGGGLVQAGGSLRLSCVASSRTSSTYAMGWFRQGPGKERDFVAIISFGGTFYADSVKGRFTISRDNAKNTVYLQMNSLKPEDTAVYYCAAGRTLSKRADSYASWGQGTQVTVSS
notes: Llama single domain antibody; also called 70(#23); VHCDR3 70(#23); not shown: tags: c-myc tag in periplasmic extract (ELISA, FACS); FLAG and His tags in purified VHH (SPR, infection assays)
B6: VHH 001 (1B02) (VHH)
VHH: EVQLVESGGGLVQAGGSLSLSCAASGGTLAMYAMSWFRQAPGKDRKFVAAINTSGRYSRYADSVKGRFTISRDNAKNTATLQMNSLEPEDTAVYYCAATDKGNWALAMSYDYWGQGTQVTVSS
notes: Llama single domain antibody; also called 144(#1); VHCDR3 144(#1); not shown: tags: c-myc tag in periplasmic extract (ELISA, FACS); FLAG and His tags in purified VHH (SPR, infection assays)
B7: VHH 018 (3E01) (VHH)
VHH: QVQLQESGGGLVQVGGSLRLSCVASGRAPSRYVMGWFRQAPGQEREFVAGIAWSGRAPYADSVKGRSTISRDNAKNTVYLQMNSLKPEDTGVYYCAGGEGAIRWTTLDAYDYWGQGTQVTVSS
notes: Llama single domain antibody; also called 49(#18); VHCDR3 49(#18); not shown: tags: c-myc tag in periplasmic extract (ELISA, FACS); FLAG and His tags in purified VHH (SPR, infection assays)
B8: VHH 019 (3E11) (VHH)
VHH: QVQLQESGGGLVQVGSSLRLSCVTSGRTPSRYVMGWFRQAPGQEREFVAAISWSGRAPYADSVKGRFTISRDNAKNTVYLQMNSLKPEDTGVYYCAGGEGAIKWTTLDAYDYWGQGTQVTVSS
notes: Llama single domain antibody; also called 47(#19); VHCDR3 47(#19); not shown: tags: c-myc tag in periplasmic extract (ELISA, FACS); FLAG and His tags in purified VHH (SPR, infection assays)
B9: VHH 020 (3H11) (VHH)
VHH: QVQLQESGGGLVQVGGSLRLSCVASGRTPSRYVMGWFRQAPGQEREFVAGIAWSGRAPYADSVKGRFVISRDSAKNTVYLQMNSLKSEDTGVYYCAGGEGAILWTTPGAYNYWGQGTQVTVSS
notes: Llama single domain antibody; also called 48(#20); VHCDR3 48(#20); not shown: tags: c-myc tag in periplasmic extract (ELISA, FACS); FLAG and His tags in purified VHH (SPR, infection assays)
B10: VHH 002 (1B04) (VHH)
VHH: QVQLVESGGGLVQAGGSLRLSCAASGLTFVTYSMGWFRQAPGKEREFVAAHRWSGSAYYAEHADSVEGRFTISRDYAKNMLYLQMNSLKHEDTAVYYCAAGVGSAAQYRYWGRGTQVTVSS
notes: Llama single domain antibody; also called 76(#2); VHCDR3 76(#2); not shown: tags: c-myc tag in periplasmic extract (ELISA, FACS); FLAG and His tags in purified VHH (SPR, infection assays)
B11: VHH 008 (1H01) (VHH)
VHH: QVQLVESGGGLVQAGGSLRLSCAASGRTFGTYSMGWFRQAPGKEREFVAAHRWSGSAYYAEHADSVEGRFTISRDYAKNMLYLQMNSLKHEDTAVYYCAAGVGSEAQYRYWGRGTQVTVSS
notes: Llama single domain antibody; also called 78(#8); VHCDR3 78(#8); not shown: tags: c-myc tag in periplasmic extract (ELISA, FACS); FLAG and His tags in purified VHH (SPR, infection assays)
B12: VHH 016 (2H11) (VHH)
VHH: EVQLVESGGGLVQAGGSLRLSCAASGRTFAPGSMGWFRQAPGKEREFVAAHRWSGSAYYADYADSVEGRFTISRDYAKNMVYLQMNSLKPGDTAVYYCAAGVGSAAQYTYWGRGTQVTVSS
notes: Llama single domain antibody; also called 77(#16); VHCDR3 77(#16); not shown: tags: c-myc tag in periplasmic extract (ELISA, FACS); FLAG and His tags in purified VHH (SPR, infection assays)

Tests used:
[1] = molecular target: T1, porcine CD163 with deletion of SRCR …; assay: flow cytometry on PAM with deletion of SRCR5
Experimental: (§1) Periplasmic Extract (P.E) from the selected clones were incubated with anti-c-myc antibody (Roche; Cat. nr. 11667203001), specific to the c-myc tag present in the soluble VHH, for 30 minutes with agitation at room temperature (RT). The mix (P.E + anti-c-myc antibody) was added to the pPAM or pPAMΔ5 domain (cells with deletion of SRCR domain 5) and incubated for 60 min at 4° C. with gentle shaking.
(§2) Cells were washed 3x with 150 µl/well of FACS Buffer and incubated with 50 µl/well of the secondary antibody GAM-APC for 30 min at 4° C. and protected from the light, with shaking.

[2] = molecular target: T1, porcine CD163 with deletion of SRCR …; assay: flow cytometry, PAM CD163-d5
Experimental: as §1, §2

pCD163-SRCR4-7-huFc = molecular target: T2, pCD163-SRCR4-7-huFc (porcine, UniProt Q2VL90 372-818, limits assumed); assay: SPR (Biacore 3000), antigen amine-coupled on CM5, VHH injected, pH 7.4
T2 construct: also called pCD163:SRCR4-7-Fc; pCD163-SRCR4-7-Fc; not shown: human Fc (huFc)
Experimental: To assess the affinity of selected purified clones to pCD163, pCD163-SRCR1-9-huFc or pCD163-SRCR4-7-huFc proteins were coated by amine coupling on a CM5 sensor ship (GE Healthcare). Surface plasmon resonance (SPR) (Biacore 3000, GE Healthcare) was used to determine the binding kinetics of selected single domain antibodies at pH7.4. Approximately 2000 RU of pCD163-SRCR1-9-huFc or pCD163-SRCR4-7-huFc, proteins at 20 or 30 µg/ml in Acetate buffer pH 5.0 or pH 5.5 were immobilized onto a CM5 chip using the standard amine coupling procedure.
1x HBS-EP pH 7.4, were utilized as a running buffer during binding kinetic measurements. Purified VHH were injected at 3-fold dilution (300 nM; 100 nM; 33 nM; 11 nM; 3.7 nM; 1.2 nM; 0.4 nM; 0 nM), for 120 s, at a flow rate of 30 µl/min. RU levels were restored to base levels after regeneration with 10 µl of 10 mM NaOH / 1 M NaCl and 10 µl of 10 mM Glycine pH 1.5 between samples. Fitting 1:1 binding with mass transfer was applied to the set sample curves using the simultaneous fitting option of the BIAevaluation software to calculate the kinetic constants of the antibody-antigen interactions including association rate (ka), dissociation rate (kd) and affinity (KD). Curves were removed from the fitting after visual examination of the residuals and considering the value of Chi2: a minimum of 4 curves were considered for the simultaneous fitting.

T2 sequence (Q2VL90 372-818 limits assumed): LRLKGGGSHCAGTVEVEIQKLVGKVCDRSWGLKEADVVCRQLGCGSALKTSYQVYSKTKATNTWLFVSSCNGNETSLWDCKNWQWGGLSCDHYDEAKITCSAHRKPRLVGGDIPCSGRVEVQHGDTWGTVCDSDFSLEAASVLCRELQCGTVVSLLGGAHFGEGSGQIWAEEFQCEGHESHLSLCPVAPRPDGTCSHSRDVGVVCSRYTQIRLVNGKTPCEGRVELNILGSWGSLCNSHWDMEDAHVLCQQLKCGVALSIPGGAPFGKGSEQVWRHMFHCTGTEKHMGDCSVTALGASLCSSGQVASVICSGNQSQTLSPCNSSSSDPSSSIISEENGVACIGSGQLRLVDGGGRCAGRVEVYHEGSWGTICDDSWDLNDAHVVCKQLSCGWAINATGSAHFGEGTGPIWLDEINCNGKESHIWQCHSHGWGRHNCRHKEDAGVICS

Binder | binding result [1] | % Binding [2] [%] | MFI [2] [MFI] | Kd (pCD163-SRCR4-7-huFc) [nM] | koff (pCD163-SRCR4-7-huFc) [s⁻¹] | kon (pCD163-SRCR4-7-huFc) [M⁻¹ s⁻¹]
B1 | no binding | 2.13 | 1580 | 1.51 | 0.00426 | 2.83e+06
B2 | no binding | 1.6 | 1130 | 8.01 | 0.00442 | 551000
B3 | no binding | 1.91 | 1610 | 34.5 | 0.0151 | 437000
B4 | no binding | 2.14 | 1450 | 22.6 | 0.00345 | 153000
B5 | no binding | 1.53 | 1260 | 1.52 | 0.00755 | 4.96e+06
B6 | no binding | 2.15 | 1430 | 9.26 | 0.0227 | 2.46e+06
B7 | no binding | 1.96 | 1400 | 42 | 0.0121 | 288000
B8 | no binding | 1.83 | 1530 | 21.1 | 0.0103 | 487000
B9 | no binding | 1.98 | 1330 | 18.2 | 0.00843 | 462000
B10 | no binding | 1.74 | 1260 | 19 | 0.0149 | 787000
B11 | no binding | 2.7 | 1460 | 34.7 | 0.00542 | 156000
B12 | no binding | 1.66 | 1360 | 30 | 0.00674 | 224000
